Experimental data taken from paper PMC10786891, “Massively parallel profiling of RNA-targeting CRISPR-Cas13d”.

B1: target 1 MT 5'PFS UGC 3'PFS UUG (mixed)
RNA 1: CACCCGUGCAAAAAUGCAGGGGUCUAAAACUGAGCGGAUAACCUCUCUAUGG
RNA 2: GGGAAUGGAUCCACAUCUACGAAUUCUGCCCAUAGAGAGGUUAUCCGCUCAUUGAGAUCGGAAGAGCACACGU
B2: target 1 MT 5'PFS UGC 3'PFS UUC (mixed)
RNA 1: CACCCGUGCAAAAAUGCAGGGGUCUAAAACUGAGCGGAUAACCUCUCUAUGG
RNA 2: GGGAAUGGAUCCACAUCUACGAAUUCUGCCCAUAGAGAGGUUAUCCGCUCAUUCAGAUCGGAAGAGCACACGU
B3: target 1 U11C,A18C (mixed)
RNA 1: CACCCGUGCAAAAAUGCAGGGGUCUAAAACUGAGCGGAUAACCUCUCUAUGG
RNA 2: GGGAAUGGAUCCACAUCUACGAAUUCGUACCAUCGAGAGGCUAUCCGCUCACCGAGAUCGGAAGAGCACACGU
B4: target 1 MT 5'PFS UCA 3'PFS CUC (mixed)
RNA 1: CACCCGUGCAAAAAUGCAGGGGUCUAAAACUGAGCGGAUAACCUCUCUAUGG
RNA 2: GGGAAUGGAUCCACAUCUACGAAUUCUCACCAUAGAGAGGUUAUCCGCUCACUCAGAUCGGAAGAGCACACGU
B5: target 1 MT 5'PFS ACG 3'PFS AAG (mixed)
RNA 1: CACCCGUGCAAAAAUGCAGGGGUCUAAAACUGAGCGGAUAACCUCUCUAUGG
RNA 2: GGGAAUGGAUCCACAUCUACGAAUUCACGCCAUAGAGAGGUUAUCCGCUCAAAGAGAUCGGAAGAGCACACGU
B6: target 1 MT 5'PFS ACU 3'PFS ACA (mixed)
RNA 1: CACCCGUGCAAAAAUGCAGGGGUCUAAAACUGAGCGGAUAACCUCUCUAUGG
RNA 2: GGGAAUGGAUCCACAUCUACGAAUUCACUCCAUAGAGAGGUUAUCCGCUCAACAAGAUCGGAAGAGCACACGU
B7: target 1 MT 5'PFS UGC 3'PFS CAC (mixed)
RNA 1: CACCCGUGCAAAAAUGCAGGGGUCUAAAACUGAGCGGAUAACCUCUCUAUGG
RNA 2: GGGAAUGGAUCCACAUCUACGAAUUCUGCCCAUAGAGAGGUUAUCCGCUCACACAGAUCGGAAGAGCACACGU
B8: target 1 MT 5'PFS UGC 3'PFS CAA (mixed)
RNA 1: CACCCGUGCAAAAAUGCAGGGGUCUAAAACUGAGCGGAUAACCUCUCUAUGG
RNA 2: GGGAAUGGAUCCACAUCUACGAAUUCUGCCCAUAGAGAGGUUAUCCGCUCACAAAGAUCGGAAGAGCACACGU
B9: target 1 MT 5'PFS UAG 3'PFS UAG (mixed)
RNA 1: CACCCGUGCAAAAAUGCAGGGGUCUAAAACUGAGCGGAUAACCUCUCUAUGG
RNA 2: GGGAAUGGAUCCACAUCUACGAAUUCUAGCCAUAGAGAGGUUAUCCGCUCAUAGAGAUCGGAAGAGCACACGU
B10: target 1 MT 5'PFS ACA 3'PFS ACC (mixed)
RNA 1: CACCCGUGCAAAAAUGCAGGGGUCUAAAACUGAGCGGAUAACCUCUCUAUGG
RNA 2: GGGAAUGGAUCCACAUCUACGAAUUCACACCAUAGAGAGGUUAUCCGCUCAACCAGAUCGGAAGAGCACACGU
B11: target 1 MT 5'PFS GGC 3'PFS UCC (mixed)
RNA 1: CACCCGUGCAAAAAUGCAGGGGUCUAAAACUGAGCGGAUAACCUCUCUAUGG
RNA 2: GGGAAUGGAUCCACAUCUACGAAUUCGGCCCAUAGAGAGGUUAUCCGCUCAUCCAGAUCGGAAGAGCACACGU
B12: target 1 MT 5'PFS GGC 3'PFS UCA (mixed)
RNA 1: CACCCGUGCAAAAAUGCAGGGGUCUAAAACUGAGCGGAUAACCUCUCUAUGG
RNA 2: GGGAAUGGAUCCACAUCUACGAAUUCGGCCCAUAGAGAGGUUAUCCGCUCAUCAAGAUCGGAAGAGCACACGU
B13: target 1 MT 5'PFS UAA 3'PFS CUU (mixed)
RNA 1: CACCCGUGCAAAAAUGCAGGGGUCUAAAACUGAGCGGAUAACCUCUCUAUGG
RNA 2: GGGAAUGGAUCCACAUCUACGAAUUCUAACCAUAGAGAGGUUAUCCGCUCACUUAGAUCGGAAGAGCACACGU
B14: target 1 MT 5'PFS UAA 3'PFS CUC (mixed)
RNA 1: CACCCGUGCAAAAAUGCAGGGGUCUAAAACUGAGCGGAUAACCUCUCUAUGG
RNA 2: GGGAAUGGAUCCACAUCUACGAAUUCUAACCAUAGAGAGGUUAUCCGCUCACUCAGAUCGGAAGAGCACACGU
B15: target 1 MT 5'PFS UCA 3'PFS UAU (mixed)
RNA 1: CACCCGUGCAAAAAUGCAGGGGUCUAAAACUGAGCGGAUAACCUCUCUAUGG
RNA 2: GGGAAUGGAUCCACAUCUACGAAUUCUCACCAUAGAGAGGUUAUCCGCUCAUAUAGAUCGGAAGAGCACACGU
B16: target 1 MT 5'PFS CCU 3'PFS CUG (mixed)
RNA 1: CACCCGUGCAAAAAUGCAGGGGUCUAAAACUGAGCGGAUAACCUCUCUAUGG
RNA 2: GGGAAUGGAUCCACAUCUACGAAUUCCCUCCAUAGAGAGGUUAUCCGCUCACUGAGAUCGGAAGAGCACACGU
B17: target 1 MT 5'PFS UAG 3'PFS UAC (mixed)
RNA 1: CACCCGUGCAAAAAUGCAGGGGUCUAAAACUGAGCGGAUAACCUCUCUAUGG
RNA 2: GGGAAUGGAUCCACAUCUACGAAUUCUAGCCAUAGAGAGGUUAUCCGCUCAUACAGAUCGGAAGAGCACACGU
B18: target 1 MT 5'PFS GCU 3'PFS GAA (mixed)
RNA 1: CACCCGUGCAAAAAUGCAGGGGUCUAAAACUGAGCGGAUAACCUCUCUAUGG
RNA 2: GGGAAUGGAUCCACAUCUACGAAUUCGCUCCAUAGAGAGGUUAUCCGCUCAGAAAGAUCGGAAGAGCACACGU
B19: target 1 insA 3' of 17,insU 3' of 5 (mixed)
RNA 1: CACCCGUGCAAAAAUGCAGGGGUCUAAAACUGAGCGGAUAACCUCUCUAUGG
RNA 2: GGGAAUGGAUCCACAUCUACGAAUUCGUACCAUAGAAGAGGUUAUCCGUCUCACCGAGAUCGGAAGAGCACACGU
B20: target 1 MT 5'PFS GGC 3'PFS UCU (mixed)
RNA 1: CACCCGUGCAAAAAUGCAGGGGUCUAAAACUGAGCGGAUAACCUCUCUAUGG
RNA 2: GGGAAUGGAUCCACAUCUACGAAUUCGGCCCAUAGAGAGGUUAUCCGCUCAUCUAGAUCGGAAGAGCACACGU
B21: target 1 MT 5'PFS GGC 3'PFS UCG (mixed)
RNA 1: CACCCGUGCAAAAAUGCAGGGGUCUAAAACUGAGCGGAUAACCUCUCUAUGG
RNA 2: GGGAAUGGAUCCACAUCUACGAAUUCGGCCCAUAGAGAGGUUAUCCGCUCAUCGAGAUCGGAAGAGCACACGU
B22: target 1 MT 5'PFS UAA 3'PFS CUG (mixed)
RNA 1: CACCCGUGCAAAAAUGCAGGGGUCUAAAACUGAGCGGAUAACCUCUCUAUGG
RNA 2: GGGAAUGGAUCCACAUCUACGAAUUCUAACCAUAGAGAGGUUAUCCGCUCACUGAGAUCGGAAGAGCACACGU
B23: target 1 MT 5'PFS CCU 3'PFS CUU (mixed)
RNA 1: CACCCGUGCAAAAAUGCAGGGGUCUAAAACUGAGCGGAUAACCUCUCUAUGG
RNA 2: GGGAAUGGAUCCACAUCUACGAAUUCCCUCCAUAGAGAGGUUAUCCGCUCACUUAGAUCGGAAGAGCACACGU
B24: target 1 MT 5'PFS AAU 3'PFS AUC (mixed)
RNA 1: CACCCGUGCAAAAAUGCAGGGGUCUAAAACUGAGCGGAUAACCUCUCUAUGG
RNA 2: GGGAAUGGAUCCACAUCUACGAAUUCAAUCCAUAGAGAGGUUAUCCGCUCAAUCAGAUCGGAAGAGCACACGU
B25: target 1 MT 5'PFS ACA 3'PFS ACA (mixed)
RNA 1: CACCCGUGCAAAAAUGCAGGGGUCUAAAACUGAGCGGAUAACCUCUCUAUGG
RNA 2: GGGAAUGGAUCCACAUCUACGAAUUCACACCAUAGAGAGGUUAUCCGCUCAACAAGAUCGGAAGAGCACACGU
B26: target 1 MT 5'PFS ACA 3'PFS ACU (mixed)
RNA 1: CACCCGUGCAAAAAUGCAGGGGUCUAAAACUGAGCGGAUAACCUCUCUAUGG
RNA 2: GGGAAUGGAUCCACAUCUACGAAUUCACACCAUAGAGAGGUUAUCCGCUCAACUAGAUCGGAAGAGCACACGU
B27: target 1 MT 5'PFS UAG 3'PFS UAU (mixed)
RNA 1: CACCCGUGCAAAAAUGCAGGGGUCUAAAACUGAGCGGAUAACCUCUCUAUGG
RNA 2: GGGAAUGGAUCCACAUCUACGAAUUCUAGCCAUAGAGAGGUUAUCCGCUCAUAUAGAUCGGAAGAGCACACGU
B28: target 1 MT 5'PFS UCA 3'PFS CUA (mixed)
RNA 1: CACCCGUGCAAAAAUGCAGGGGUCUAAAACUGAGCGGAUAACCUCUCUAUGG
RNA 2: GGGAAUGGAUCCACAUCUACGAAUUCUCACCAUAGAGAGGUUAUCCGCUCACUAAGAUCGGAAGAGCACACGU

Biological target: T1, EsCas13d, nuclease-dead (Eubacterium siraeum, UniProt B0MS50, R295A;H300A;R849A;H854A)
T1 sequence: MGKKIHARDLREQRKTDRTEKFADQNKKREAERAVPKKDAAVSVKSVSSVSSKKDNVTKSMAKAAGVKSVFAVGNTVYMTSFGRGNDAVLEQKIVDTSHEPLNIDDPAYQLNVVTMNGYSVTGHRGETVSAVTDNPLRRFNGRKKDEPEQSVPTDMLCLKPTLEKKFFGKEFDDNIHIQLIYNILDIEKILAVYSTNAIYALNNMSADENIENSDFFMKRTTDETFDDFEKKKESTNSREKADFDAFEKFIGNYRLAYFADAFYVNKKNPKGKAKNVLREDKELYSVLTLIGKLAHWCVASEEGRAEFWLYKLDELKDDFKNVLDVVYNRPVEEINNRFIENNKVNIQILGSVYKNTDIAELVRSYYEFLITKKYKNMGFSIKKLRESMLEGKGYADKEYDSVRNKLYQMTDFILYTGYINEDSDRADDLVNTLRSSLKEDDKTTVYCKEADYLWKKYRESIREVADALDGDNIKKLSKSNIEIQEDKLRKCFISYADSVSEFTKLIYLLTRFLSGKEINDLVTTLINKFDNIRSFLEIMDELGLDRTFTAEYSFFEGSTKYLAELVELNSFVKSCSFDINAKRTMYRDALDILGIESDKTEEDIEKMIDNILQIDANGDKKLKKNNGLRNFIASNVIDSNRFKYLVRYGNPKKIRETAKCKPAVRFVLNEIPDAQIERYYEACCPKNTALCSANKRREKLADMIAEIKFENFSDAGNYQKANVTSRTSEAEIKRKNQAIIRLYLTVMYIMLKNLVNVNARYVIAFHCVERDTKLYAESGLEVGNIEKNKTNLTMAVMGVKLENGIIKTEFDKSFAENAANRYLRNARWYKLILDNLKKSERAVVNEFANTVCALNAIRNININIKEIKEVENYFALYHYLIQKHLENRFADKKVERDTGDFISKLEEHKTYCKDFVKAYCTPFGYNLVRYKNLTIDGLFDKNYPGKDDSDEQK
Experiment: crRNA (strand 1, pre-loaded); Mg2+; 40 mM Tris-HCl pH 7.5, 150 mM NaCl, 6 mM MgCl2, 1 mM DTT, 0.1% Tween-20, 0.2 mg/ml BSA; 25 C; 10 min per concentration, then washed
Details: tags: His6-TwinStrep-SUMO cleaved; N-terminal SNAP kept (SNAP-Surface 488); label: 3' end held by stalled T7 RNA polymerase

Binder	Kd [nM]
B1	10.7 ± 2.05
B2	14 ± 3.7
B3	75 ± 10
B4	12.9 ± 3.1
B5	26.5 ± 11
B6	~90
B7	~65
B8	63 ± 28.5
B9	73.5 ± 28
B10	~47.5
B11	17.8 ± 2.5
B12	17.1 ± 3.7
B13	48 ± 19
B14	74 ± 28
B15	11.5 ± 2.3
B16	21 ± 7
B17	16.8 ± 2.05
B18	~110
B19	25.8 ± 2.8
B20	10 ± 1.2
B21	11.1 ± 1.15
B22	25.8 ± 5.25
B23	6.65 ± 1.95
B24	28.5 ± 12
B25	~31
B26	9.3 ± 2.9
B27	45 ± 9
B28	9.45 ± 2.55
